Reference: patent US20090291088A1 (Biogen, published 2009)

Tests used:
human IGF-1R(1-903)-Fc = biological target: T1, human IGF-1R(1-903)-Fc (human, UniProt P08069 31-933); assay: SPR, Fab over captured hIGF-1R-Fc
T1 construct: Made by Biogen Idec; Multimerises through IGF-1R and Fc; also called hIGF-1R-Fc; IGF-1R-Fc; not shown: C-terminal human IgG1-Fc tag
Procedure: Experiments were performed on a Biacore 3000 set to 25° C. using HBS-EP (Biacore, Cat. No. BR-1001-88) as the running buffer. An anti-human IgG-Fc antibody (2C11 from Biogenesis, Cat. No. 5218-9850) was immobilized to saturation on a Biacore CM5 chip (Cat. No. BR-1000-14) surface by injection at 500 nM in HBS-EP buffer. mIGF-1R-Fc or hIGF-1R-Fc was captured on the chip surface by injecting 40 μL of 20 nM receptor at 3 μL/min. […] Dissociation of Fab was measured for ˜27 minutes. Fab was serially diluted from 25 to 0.4 nM to obtain concentration dependent kinetic binding curves. Regeneration of the surface chip between each injection series was performed using 3×10 μL injections of 100 mM glycine pH 2.0 at 60 μL/min. Each curve was double referenced using (1) data obtained from a CM5 chip surface devoid of the anti-IgG antibody 2C11 and (2) data from a primary injection of receptor followed by a secondary injection of HBS-EP buffer.

[1] = biological target: T2, human IGF-1R(1-902)-His10 (human, UniProt P08069 31-932); assay: SPR, Fab over captured IGF-1R-10His
T2 construct: Cy5-labelled in tr-FRET; also called hIGF-1R-His10; IGF-1R-His
Procedure: (§1) All surface plasmon resonance (SPR) experiments were performed on a Biacore 3000 set to 25° C. using HBS-EP (Biacore, Cat. No. BR-1001-88) as the running buffer. A biotin-labeled anti-HisTag antibody (biotin-PENTA-His, Qiagen Cat. No. 34440) was immobilized to saturation on a Biacore SA chip (Cat. No. BR-1000-32) surface by injection at 500 nM in HBS-EP buffer. […] Subsequent to IGF-1R injections, flow rates were increased to 20 μL/min. A second, 130 μL injection of anti-IGF-1R antibody or Fab was performed to investigate interactions with the receptor. Each antibody and Fab was serially diluted from 64 nM to 0.5 nM to obtain concentration dependent kinetic binding curves. Each injection series was regenerated using 3×10 μL injections of 10 mM Acetate, pH 4.0, at 20 μL/min. Each curve was double referenced using (1) data obtained from a streptavidin surface devoid of IGF-1R and (2) data from a primary injection of IGF-1R followed by a secondary injection of HBS-EP buffer. The concentration series for each antibody and Fab was fit to the 1:1 binding model provided within the BiaEvaluation software of the manufacturer.
(§2) To obtain discrete affinities, Fab fragments of each antibody were generated using papain digestion as described above.

[2] = biological target: T3, human IGF-1R expressed on cells (human, UniProt P08069 31-1367); assay: flow cytometry, MCF-7 cells
T3 construct: On MCF-7 tumor cells or on 3T3/CHO transfectants; precursor is processed into alpha and beta subunits; Signal peptide 1-30 left out as stated; also called wild type IGF-1R; IGF-1R 3T3

[3] = biological target: T4, IGF-1R (soluble, construct not stated) (human, UniProt P08069 31-932, limits assumed); assay: Fab affinity for IGF-1R, method not given; Fab, not IgG; method and IGF-1R construct not stated
T4 construct: whole entry named; also called Solube IGF-1R Protein; soluble recombinant human IGF-1R

[4] = biological target: T5, hIGF-1R-Fc mutant SD103 (D461A, V462T) (human, UniProt P08069 31-933); assay: SPR, Fab over captured mutant
T5 construct: not shown: C-terminal human IgG1-Fc tag

[5] = biological target: T6, hIGF-1R-Fc mutant SD113 (E570A, I571T) (human, UniProt P08069 31-933); assay: SPR, Fab over captured mutant
T6 construct: not shown: C-terminal human IgG1-Fc tag

[6] = biological target: T7, hIGF-1R-Fc mutant SD109 (Y482A, R483W) (human, UniProt P08069 31-933); assay: SPR, Fab over captured mutant
T7 construct: not shown: C-terminal human IgG1-Fc tag

[7] = biological target: T8, hIGF-1R-Fc mutant SD104 (H464A) (human, UniProt P08069 31-933); assay: SPR, Fab over captured mutant
T8 construct: not shown: C-terminal human IgG1-Fc tag

[8] = biological target: T9, hIGF-1R-Fc mutant SD108 (H480E) (human, UniProt P08069 31-933); assay: SPR, Fab over captured mutant
T9 construct: not shown: C-terminal human IgG1-Fc tag

[9] = biological target: T2, human IGF-1R(1-902)-His10; assay: SPR, Fab over IGF-1R-10His captured by anti-His
Procedure: as §1, §2

B1: M13-C06 Fab (Fab, V domains shown)
VH: EVQLLESGGGLVQPGGSLRLSCAASGFTFSIYRMQWVRQAPGKGLEWVSGISPSGGTTWYADSVKGRFTISRDNSKNTLYLQMNSLRAEDTAVYYCARWSGGSGYAFDIWGQGTMVTVSS
VL: DIQMTQSPLSLSASVGDRVTITCQASRDIRNYLNWYQQKPGKAPKLLIYDASSLQTGVPSRFGGSGSGTDFSFTIGSLQPEDIATYYCQQFDSLPHTFGQGTKLEIK
notes: Human Fab from a phage library, kappa light chain
koff (human IGF-1R(1-903)-Fc): 0.000833 s⁻¹
kon (human IGF-1R(1-903)-Fc): 852000 M⁻¹ s⁻¹
koff [1]: 0.0012 s⁻¹
kon [1]: 880000 M⁻¹ s⁻¹
EC50 [2]: 8.8 nM
Kd [3]: 1.3 nM
binding result [4]: no binding (tested: 10 nM)
binding result [5]: no binding (tested: 10 nM)
binding result [6]: no binding (tested: 10 nM)
binding result [7]: no binding (tested: 10 nM)
binding result [8]: no binding (tested: 10 nM)
Kd [9]: 1.3 nM
